Data published in US10787640B2, “Producing mesodermal cell types and methods of using the same” (The Board of Trustees of the Leland Stanford Junior …, priority 2015, dated 2020).

Experiments:
[1] = system: hESC-derived primitive streak; assay: Paraxial versus lateral/cardiac mesoderm specification from primitive streak; type: cell-based, human
Protocol: (§1) Subsequently, day 1 anterior primitive streak was briefly washed (DMEM/F12) and differentiated towards day 2 paraxial mesoderm for 24 hours (1 μM A-83-01+3 μM CHIR99021+250 nM LDN-193189+20 ng/mL FGF2). Separately, day 1 mid primitive streak was differentiated towards day 2 lateral mesoderm for 24 hours (1 μM A-83-01+30 ng/mL BMP4+1 μM C59; with 2 μM SB-505124 sometimes used instead of A-83-01).
B) To assess whether FGF/ERK signaling was permissive for both paraxial and lateral/cardiac mesoderm specification, hESCs were differentiated into primitive streak for 24 hours, and then transferred into (i) A-83-01+DM3189 (“AD”; permissive for paraxial mesoderm) or (iii) A-83-01+BMP4+C59 (“AB+C59”; permissive for lateral/cardiac mesoderm) for 24 hours in the presence or absence of a FGF agonist (FGF2, 10-20 ng/mL), an FGFR inhibitor (PD173074, 100 nM) or a MAPK/ERK inhibitor (PD0325901, 500 nM) for 24 hours and qPCR for all experiments was conducted on day 2 (that is, after 48 total hours of hESC differentiation). To assess whether TGFβ signaling altered paraxial, intermediate and lateral/cardiac mesoderm specification, hESCs were differentiated into primitive streak for 24 hours, and then transferred into (ii) DM3189+FGF2 (“DF”; permissive for paraxial mesoderm) or (iv) BMP4+C59 (“B+C59”; permissive for lateral/cardiac mesoderm) for 24 hours in the presence of a TGFβ agonist (Activin, 10-25 ng/mL) or a TGFβR inhibitor (A-83-01, 1 μM) for 24 hours or (v) BMP4 (3 ng/mL)+FGF2 (20 ng/mL) (“B3F20”) for 24 hours in the presence of a TGFβ agonist (Activin, 3-25 ng/mL) or a TGFβR inhibitor (A-83-01, 1 μM) and qPCR for all experiments was conducted on day 2 (that is, after 48 total hours of hESC differentiation). […] Therefore, hESCs were differentiated towards primitive streak for 24 hours, and then subsequently transferred into (i) A-83-01+CHIR99021+FGF2 (ACF) in the presence or absence of one of two BMPR inhibitors (DMH1, 1 μM or LDN193189, 250 nM) for 24 hours and qPCR was conducted on day 2. Alternately, hESC-derived PS was transferred into (ii) CHIR99021+DM3189+FGF2 (CDF) for 24 hours in the presence or absence of a TGFβ agonist (25 ng/mL Activin) or one of two TGFβR inhibitors (SB-505124, 2 μM or A-83-01, 1 μM) for 24 hours and qPCR was conducted on day 2. […] E) To test the role of FGF in lateral mesoderm induction (on day 2 of hESC differentiation), NKX2.5-GFP hESCs were differentiated into mid primitive streak for 24 hours, and then were treated with BMP4+C59+SB505124 in the presence of an FGF agonist (FGF2, 20-50 ng/mL) or a FGFR inhibitor (PD173074, 100 nM) or a MAPK/ERK inhibitor (PD0325901, 500 nM) for 24 hours, and then all cultures were treated with BMP4+C59+SB505124+FGF2 for 24 hours more before being harvested on day 3 for FACS.

hESCs = assay: Downstream mesoderm potential of PS induced with Activin or BMP4; type: cell-based, human
Protocol: as §1
E) To assess whether inducing PS in the presence of TGFβ signaling altered its downstream potential to form different kinds of mesoderm, (i) H7 hESCs were differentiated into PS with CHIR99021+FGF2+PIK90 (CFK) for 24 hours in the presence or absence of increasing amounts of Activin (10-100 ng/mL), and then were transferred into paraxial mesoderm induction conditions (A-83-01+CHIR99021+DM3189+FGF2) for 24 hrs, and qPCR was conducted or (ii) H7 hESCs were differentiated into PS with BMP4 (10 ng/mL)+CHIR99021+FGF2+PIK90 (B10CFK) for 24 hours in the presence or absence of increasing amounts of Activin (10-100 ng/mL), and then were transferred into lateral/cardiac mesoderm inductions (A-83-01+BMP4+C59) for 24 hours and qPCR was conducted. […] F) To assess whether inducing PS in the presence of BMP signaling altered its downstream potential to form different kinds of mesoderm, H7 hESCs were differentiated into PS with Activin (10 ng/mL)+CHIR99021+FGF2+PIK90 (A10CFK) for 24 hours in the presence of absence of increasing amounts of BMP4 (1-40 ng/mL), and then were (i) transferred into paraxial mesoderm induction conditions (A-83-01+CHIR99021+DM3189+FGF2) for 24 hrs, and qPCR was conducted or were (ii) transferred into lateral/cardiac mesoderm inductions (A-83-01+BMP4+C59) for 24 hours and qPCR was conducted. […] G) H7 hESCs were differentiated into anterior primitive streak (30 ng/mL Activin+4 μM CHIR99021+20 ng/mL FGF2+100 nM PIK90) in the presence or absence of BMP4 (10 ng/mL) for 24 hours, and then transferred into paraxial mesoderm induction conditions for 24 hours before TBX6 immunostaining was conducted. […] H) NKX2.5-GFP hESCs were differentiated into primitive streak with BMP4+CHIR99021+FGF2+PIK90 for 24 hours in the presence or absence of increasing doses of Activin (10-100 ng/mL), and then transferred into suboptimal lateral/cardiac mesoderm induction conditions (A-83-01+BMP4+C59, without FGF2) for 48 hours and FACS was performed after 72 hours of total differentiation to quantify NKX2.5-GFP^+ cell percentages. […] I) Efficient MIXL11^+ PS specification is highly reproducible in both anterior and mid PS differentiation conditions (“APS” and “MPS”, respectively) across 4 independent differentiation experiments, as assayed by a MIXL1-GFP knock-in reporter hESC line. Each circle or triangle represents an individual experiment and the average differentiation efficiency attained across all experiments is indicated.

## Cc1cccc(-c2[nH]c(C(C)(C)C)nc2-c2ccc3c(c2)OCO3)n1 [SB-505124, 2-[4-(1,3-Benzodioxol-5-yl)-2-(1,1-dimethylethyl)-1H-imidazol-5-yl]-6-methyl-pyridine]
[1]; ACF with DMH1 1 μM or LDN193189 250 nM, CDF with SB-505124 2 μM or A-83-01 1 μM, 24 hours
  paraxial mesoderm induction (qPCR day 2): serve to induce paraxial mesoderm
[1]; BMP4 (50 ng/mL)+C59, 48 hours, SB-505124 2 μM or A-83-01 1 μM, P<0.01
  NKX2.5-GFP+ cardiac mesoderm induction (FACS day 3): increased NKX2.5-GFP^+ cardiac mesoderm induction

B1: Activin: TGFβ agonist (protein, UniProt P08476 311-426, looked up)
Inhibin beta A chain: GLECDGKVNICCKKQFFVSFKDIGWNDWIIAPSGYHANYCEGECPSHIAGTSGSSLSFHSTVINHYRMRGHSPFANLKSCCVPTKLRPMSMLYYDDGQNIIKKDIQNMIVEECGCS
modifications: Inhibin beta A chain
notes: TGFβ agonist
hESCs; PS induced in B10CFK with lower Activin (e.g., 10 ng/mL)
  lateral/cardiac mesoderm potential of PS (qPCR): had maximal lateral/cardiac mesoderm potential
hESCs; PS induced in CFK with higher Activin doses (e.g., 30 ng/mL)
  paraxial mesoderm potential of PS (qPCR): instilled paraxial mesoderm potential
hESCs; higher Activin doses (50-100 ng/mL) during PS induction
  NKX2.5-GFP+ cell percentages (FACS, 72 hours): less effective
hESCs; low to moderate Activin during PS induction
  NKX2.5-GFP+ cell percentages (FACS, 72 hours): maximizes subsequent differentiation into NKX2.5-GFP^+ cardiac mesoderm

B2: BMP4: BMP family ligand, BMP agonist (protein, UniProt P12644 293-408, looked up)
Bone morphogenetic protein 4: SPKHHSQRARKKNKNCRRHSLYVDFSDVGWNDWIVAPPGYQAFYCHGDCPFPLADHLNSTNHAIVQTLVNSVNSSIPKACCVPTELSAISMLYLDEYDKVVLKNYQEMVVEGCGCR
[1]; A8301+C59, 24 hours, BMP4 10-30 ng/mL
  lateral mesoderm specification (qPCR): required to drive lateral mesoderm specification
hESCs; PS induced in A10CFK with BMP4 (1-40 ng/mL)
  paraxial mesoderm potential of PS (qPCR): strongly blocked paraxial mesoderm potential
hESCs; PS induced in A10CFK with high BMP4 (40 ng/mL)
  lateral/cardiac mesoderm potential of PS (qPCR): maximized lateral/cardiac mesoderm potential
hESCs; anterior PS induced with BMP4 (10 ng/mL), 24 hours
  TBX6 immunostaining after paraxial mesoderm induction: larger numbers of TBX6^− clusters of non-paraxial mesoderm cells
